Measured values: the RNAGym collection of RNA variant scans (doi:10.1101/gr.219683.116)

B1: mRNA-splicing (parent)
chain: AGUUGCUGCUGGGAGCUCCAGCACAGUGAAAUGGACAGAAGGGCAGAGCAA

Variants of: B1
Assay: exon inclusion enrichment index; higher = more inclusion; WT1 exon 5 minigene, HEK293

Variant	exon inclusion enrichment index
C6A U7C C9A U10C A40U G41U	1.9
C6A U7C C9A U10C A40U G41A	0.347
C6A U7C C9A U10C A40U G41C	3.18
C6A U7C C9A U10C A45U G46U	1.75
C6A U7C C9A U10C A45U G46A	2.51
C6A U7C C9A U10C A45U G46C	2.51
C6A U7C C9A U10C G11U	3.07
C6A U7C C9A U10C G11A	1.84
C6A U7C C9A U10C G11C	3.61
C6A U7C C9A U10C C44A A45U	5.42
C6A U7C C9A U10C C44A A45G	4.86
C6A U7C C9A U10C C44A A45C	4.04
C6A U7C C9A U10C A25G	4.53
C6A U7C C9A U10C A25C	4.45
C6A U7C C9A U10C A25U	3.47
C6A U7C C9A U10C A23C C24U	2.26
C6A U7C C9A U10C A23C C24A	3.49
C6A U7C C9A U10C A23C C24G	4.61
C6A U7A C9A U10G G11U	1.14
C6A U7A G8U C9U U10A	0.00366
C6A U7C C9A	1.99
C6A U7C C9A U10C A35U	1.36
C6A U7C C9A U10C A35C	1.54
C6A U7C C9A U10C A35G	1.79

Variant	exon inclusion enrichment index
C6A U7C C9A U10C A14C G15C	1.7
C6A U7C C9A U10C A14C G15A	2.13
C6A U7C C9A U10C A14C G15U	2.32
C6A U7C C9A U10C A39U A40U	1.76
C6A U7C C9A U10C A39U A40G	1.39
C6A U7C C9A U10C A39U A40C	3.44
C6A U7C C9A U10C A14G	4.78
C6A U7C C9A U10C A14C	3.07
C6A U7C C9A U10C A14U	1.94
C6A U7C C9A U10C A37C	3.93
C6A U7C C9A U10C A37U	2.49
C6A U7C C9A U10C A37G	4.15
C6A U7C C9A U10C	3.63
C6A U7C C9A U10A	1.36
C6A U7C C9A U10C A29G A30C	2.23
C6A U7C C9A U10C A29G A30U	1.72
C6A U7C C9A U10C A29G A30G	3.23
C6A U7C C9A U10C A25U G26U	2.49
C6A U7C C9A U10C A25U G26C	3.26
C6A U7C C9A U10C A25U G26A	3.54
C6A U7C C9A U10C A25C G26C	4.09
C6A U7C C9A U10C A25C G26A	4.93
C6A U7C C9A U10C A25C G26U	3.89
C6A U7C C9A U10C A30U A31U	2.77

Variant	exon inclusion enrichment index
C6A U7C C9A U10C A30U A31C	2.83
C6A U7C C9A U10C A30U A31G	3.73
C6A U7C C9A U10C C16G U17G	0.621
C6A U7C C9A U10C C16G U17C	1.82
C6A U7C C9A U10C C16G U17A	3.24
C6A U7A C9U U10G	0.0647
C6A U7A C9U U10C	1.36
C6A U7A C9U U10A	0.0203
C6A U7C C9A U10C A31C U32A	2.78
C6A U7C C9A U10C A31C U32G	3.9
C6A U7C C9A U10C A31C U32C	4.42
C6A U7C C9A U10C A23C	3.27
C6A U7C C9A U10C A23G	4.36
C6A U7C C9A U10C A23U	2.78
C6A U7C C9A U10C G15C	4
C6A U7C C9A U10C G15U	3.57
C6A U7C C9A U10C G15A	3.34
C6A U7C C9A U10C C16U U17A	2.9
C6A U7C C9A U10C C16U U17G	2.04
C6A U7C C9A U10C C16U U17C	2.51
C6A U7C C9A U10C A31G U32A	5.2
C6A U7C C9A U10C A31G U32G	2.7
C6A U7C C9A U10C A31G U32C	4.39
C6A U7C C9A U10C C18U	2.7

Variant	exon inclusion enrichment index
C6A U7C C9A U10C C18G	3.06
C6A U7C C9A U10C C18A	2.64
C6A U7A G8A C9A U10C	1.36
C6A U7A G8A C9A U10A	0.207
C6A U7A G8C C9G U10A	0.781
C6A U7C C9A U10C G12C G13A	2.55
C6A U7C C9A U10C G12C G13C	1.72
C6A U7C C9A U10C G12C G13U	0.77
C6A U7C C9A U10C C19G A20G	2.38
C6A U7C C9A U10C C19G A20C	3.87
C6A U7C C9A U10C C19G A20U	3.25
C6A U7C C9A U10C G13U A14U	2.48
C6A U7C C9A U10C G13U A14C	2.46
C6A U7C C9A U10C G13U A14G	2.11
C6A U7C C9A U10C C22A	3.18
C6A U7C C9A U10C C22U	2.84
C6A U7C C9A U10C C22G	3.9
C6A U7C C9A U10C G13A	3.32
C6A U7C C9A U10C G13C	2.83
C6A U7C C9A U10C G13U	1.08
C6A U7C C9A U10C G21A	3.08
C6A U7C C9A U10C G21C	3.66
C6A U7C C9A U10C G11U G12U	1.57
C6A U7C C9A U10C G11U G12C	1.94

Variant	exon inclusion enrichment index
C6A U7C C9A U10C G11U G12A	1.25
C6A U7C C9A U10C A39C A40G	3.55
C6A U7C C9A U10C A39C A40C	3.31
C6A U7C C9A U10C A39C A40U	3.22
C6A U7C C9A U10C A25G G26C	4.03
C6A U7C C9A U10C A25G G26A	5.01
C6A U7C C9A U10C A25G G26U	4.03
C6A U7A C9G	0.28
C6A U7A C9U	0.615
C6A U7C C9A U10C A31C	3.96
C6A U7C C9A U10C A31G	3.73
C6A U7C C9A U10C A31U	3.04
C6A U7C C9A U10C G21A C22U	2.22
C6A U7C C9A U10C G21A C22A	2.06
C6A U7C C9A U10C G21A C22G	3.04
C6A U7C C9A U10C C24A A25G	2.94
C6A U7C C9A U10C C24A A25U	2.96
C6A U7C C9A U10C C24A A25C	4.45
C6A U7C C9A G11U	2.1
C6A U7C C9A G11A	0.337
C6A U7C C9A G11C	2.88
C6A U7A G8U C9G U10A	0.135
C6A U7C C9A U10C G15C C16U	3.32
C6A U7C C9A U10C G15C C16A	2.79

Variant	exon inclusion enrichment index
C6A U7C C9A U10C G15C C16G	3.44
C6A U7C C9A U10C A47G G48C	1.71
C6A U7C C9A U10C A47G G48U	0.925
C6A U7C C9A U10C A47G G48A	2.43
C6A U7A C9G U10A	0.286
C6A U7A C9G U10G	0.0939
C6A U7A C9G U10C	1.05
C6A U7C C9A U10C G15U C16G	3.06
C6A U7C C9A U10C G15U C16U	3.12
C6A U7C C9A U10C G15U C16A	2.78
C6A U7C C9A U10C C24U A25G	3.92
C6A U7C C9A U10C C24U A25U	2.88
C6A U7C C9A U10C C24U A25C	4.21
C6A U7C C9A U10C C44G	4.07
C6A U7C C9A U10C C44A	4.44
C6A U7C C9A U10C C44U	1.32
C6A U7C	0.264
C6A U7C C9A U10C A47C	3.27
C6A U7C C9A U10C A47U	2.86
C6A U7C C9A U10C A47G	0.844
C6A U7C C9A U10C C16U	3.55
C6A U7C C9A U10C C16A	3.82
C6A U7C C9A U10C C16G	2.49
C6A U7A G8A C9U U10A	0.0156

Variant	exon inclusion enrichment index
C6A U7A G8U C9A U10A	0.117
C6A U7A G8U C9A U10C	1.38
C6A U7C C9A U10C C18G C19A	3.84
C6A U7C C9A U10C C18G C19G	3.85
C6A U7C C9A U10C C18G C19U	1.28
C6A U7C C9A U10C A31U U32C	3.74
C6A U7C C9A U10C A31U U32G	2.15
C6A U7C C9A U10C A31U U32A	0.902
C6A U7C C9A U10C G21C C22U	3.3
C6A U7C C9A U10C G21C C22G	3.98
C6A U7C C9A U10C G21C C22A	3.4
C6A U7C C9A U10C C18A C19U	0.374
C6A U7C C9A U10C C18A C19G	0.998
C6A U7C C9A U10C C18A C19A	1.44
C6A U7C C9A U10C A39C	1.37
C6A U7C C9A U10C A39G	2.38
C6A U7C C9A U10C A39U	0.343
C6A U7C C9A U10C G15A C16U	2.88
C6A U7C C9A U10C G15A C16G	2.11
C6A U7C C9A U10C G15A C16A	2.34
C6A U7C C9A U10C A23G C24A	4.13
C6A U7C C9A U10C A23G C24G	4.2
C6A U7C C9A U10C A23G C24U	1.95
